Experimental data reported in the supplement of paper PMC10126150.
± gives the standard deviation of the averaged measurements.
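Note: ATP exposure 15 min at 22 °C before imaging.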

What follows are sequences tested on ATP (assay: switch fluorescence ratio, 500 uM ATP over buffer (Cy3 cluster intensity, sum of 5 cycles each) (fold (ratio)); higher = stronger signal-on switching upon ATP binding; sequences stand for … in TCGTCGGCAGCGTCAGATGTGTATAAGAGACAGTTTTTTTTTTTTTTTTTTTTTTTTT…TC). Conditions: aptamer strand: ATP DNA aptamer (quencher-CACCTGGGGGAGTATTGCGGAGGAAGG + anchor), 100 nM annealed; ATP concentration: 500 uM.
Outline: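 For every switch-domain sequence, the fluorescence ratio is the mean of per-cluster values, each being summed target-cycle Cy3 intensity over summed buffer-cycle Cy3 intensity. Clusters outside 100-1000 RFU were excluded. On a modified Illumina MiSeq flow-cell, the Cy3-labelled switching-strand clusters were annealed to 100 nM quencher-labelled ATP aptamer, imaged in selection buffer and then after 15 min with 500 uM ATP at 22 °C. Five such cycles were run, with NaOH stripping and re-annealing between them.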
Sequence ACTTTTTCGG has a switch fluorescence ratio of 0.9909 ± 0.006.
With TTCGCGCTTT the switch fluorescence ratio was 1 ± 0.036.
CATCGGAGGA was tested, and the switch fluorescence ratio was 1.02 ± 0.025.
Sequence TGCGAAGGGT has a switch fluorescence ratio of 0.9856 ± 0.0046.
AAGATGATGT was tested, and the switch fluorescence ratio was 0.986 ± 0.03.
GGGATTTGGT gave a switch fluorescence ratio of 1.02 ± 0.02.
Sequence AAGAAGGTCC has a switch fluorescence ratio of 1.01 ± 0.019.
AATAAACAGG showed a switch fluorescence ratio of 1.08 ± 0.041.
Work on GATGTGGTGG yielded a switch fluorescence ratio of 0.99 ± 0.034.
CGGGGACGGT gave a switch fluorescence ratio of 0.9631 ± 0.0064.
Work on GGGGTTGGAA yielded a switch fluorescence ratio of 0.9873 ± 0.0056.
Work on CGGTAGGGGT yielded a switch fluorescence ratio of 0.969 ± 0.028.
CCTGGCTTGA gave a switch fluorescence ratio of 0.996 ± 0.016.
With CTTGTAACCT the switch fluorescence ratio was 1.8 ± 0.061.
TAGGCGTGGT gave a switch fluorescence ratio of 1.01 ± 0.017.
In the case of TCGTTGAGTG, the switch fluorescence ratio is reported as 1.02 ± 0.056.
Sequence TAGACTATGG has a switch fluorescence ratio of 1.04 ± 0.023.
For AAAAAAATGT, the switch fluorescence ratio was 1.054 ± 0.01.
GTGGGATGAC gave a switch fluorescence ratio of 1.01 ± 0.024.
GGTGTGTGGT was tested, and the switch fluorescence ratio was 1.002 ± 0.0029.
With GATATGCTGT the switch fluorescence ratio was 0.985 ± 0.017.
For AACGGCGGGG, the switch fluorescence ratio was 1 ± 0.017.
Work on GTAATTGGGC yielded a switch fluorescence ratio of 0.964 ± 0.061.
For TTGTTCCTTT, the switch fluorescence ratio was 0.9847 ± 0.0076.
With GCGGAACGGT the switch fluorescence ratio was 1.03 ± 0.034.
Sequence GACCTTTTT has a switch fluorescence ratio of 1.02 ± 0.042.
TGTGGGTCGG gave a switch fluorescence ratio of 0.968 ± 0.026.
Sequence GATGTACACG has a switch fluorescence ratio of 1.013 ± 0.003.
Sequence AACGCCGAGT has a switch fluorescence ratio of 0.9816 ± 0.0097.
TTTTTTGGCC gave a switch fluorescence ratio of 0.993 ± 0.036.
CATATGATCG showed a switch fluorescence ratio of 0.961 ± 0.025.
TTTTTGAATG gave a switch fluorescence ratio of 0.983 ± 0.032.
For GTTGAACGCG, the switch fluorescence ratio was 1.028 ± 0.0015.
Sequence ATTTTGCAAT has a switch fluorescence ratio of 1.27 ± 0.037.
Work on CTTGGGTATA yielded a switch fluorescence ratio of 1.25 ± 0.29.
With TTTGGGGGAC the switch fluorescence ratio was 0.984 ± 0.05.
For ACTATTATTC, the switch fluorescence ratio was 1.05 ± 0.034.
In the case of CTGTATTAGT, the switch fluorescence ratio is reported as 1.02 ± 0.027.
TTGGCGTTCG was tested, and the switch fluorescence ratio was 1.01 ± 0.025.
With GTTGTTACGG the switch fluorescence ratio was 1.01 ± 0.037.
TTGGGATGGG was tested, and the switch fluorescence ratio was 0.998 ± 0.015.
For TAGGTTGGGG, the switch fluorescence ratio was 1.005 ± 0.0065.
Work on GTTGCTCTCA yielded a switch fluorescence ratio of 1.01 ± 0.049.
TTGGGGTTGC was tested, and the switch fluorescence ratio was 1.01 ± 0.034.
TTGTGGGCAG was tested, and the switch fluorescence ratio was 1.03 ± 0.032.
In the case of GCTATACAGC, the switch fluorescence ratio is reported as 1.03 ± 0.049.
With ACTAAAAAAA the switch fluorescence ratio was 0.991 ± 0.025.
GGTCTTAACT was tested, and the switch fluorescence ratio was 0.967 ± 0.028.
With CCAAGAGTCG the switch fluorescence ratio was 1.08 ± 0.046.
With TTTTTGGCCT the switch fluorescence ratio was 1.05 ± 0.052.
CTGTAGGGGG was tested, and the switch fluorescence ratio was 1.07 ± 0.13.
Work on TTCTGAGGGG yielded a switch fluorescence ratio of 1.03 ± 0.035.
GGTGGGAATG was tested, and the switch fluorescence ratio was 0.99 ± 0.023.
For AAGGATAAAC, the switch fluorescence ratio was 1.01 ± 0.039.
In the case of AGAGGGGCCA, the switch fluorescence ratio is reported as 1.01 ± 0.048.
In the case of ATGGGGCAGG, the switch fluorescence ratio is reported as 1.01 ± 0.033.
Sequence GCTTGGAGAG has a switch fluorescence ratio of 0.99 ± 0.013.
Work on TCTAGGCGTC yielded a switch fluorescence ratio of 1.07 ± 0.031.
TCAGATTAGC was tested, and the switch fluorescence ratio was 0.998 ± 0.018.
In the case of TTATTAGGGT, the switch fluorescence ratio is reported as 1 ± 0.022.
For GGGTGGGGTT, the switch fluorescence ratio was 0.991 ± 0.017.
With AGGTTCCACG the switch fluorescence ratio was 0.996 ± 0.03.
With AGGTATAAGG the switch fluorescence ratio was 1.02 ± 0.019.
Sequence TCTAAGTGAG has a switch fluorescence ratio of 1.02 ± 0.016.
Sequence TAAATTGATT has a switch fluorescence ratio of 1.02 ± 0.014.
Work on AAGGAAGCGT yielded a switch fluorescence ratio of 0.9883 ± 0.0045.
For GCTACCTTTT, the switch fluorescence ratio was 1.06 ± 0.069.
Sequence AATAGCAGGA has a switch fluorescence ratio of 1.02 ± 0.02.
For GAGGTTCCCG, the switch fluorescence ratio was 0.984 ± 0.051.
Sequence TTTCTGTTTG has a switch fluorescence ratio of 1.01 ± 0.05.
Sequence ACTTTGGTTT has a switch fluorescence ratio of 0.993 ± 0.031.
For TTTTTCTAGT, the switch fluorescence ratio was 1.01 ± 0.02.
For CTGAAGGGAT, the switch fluorescence ratio was 1.05 ± 0.023.
Sequence ATGAATGGAG has a switch fluorescence ratio of 1.01 ± 0.026.
AAGGTTTTTG showed a switch fluorescence ratio of 1 ± 0.03.
CATGTGTGGT was tested, and the switch fluorescence ratio was 1.004 ± 0.0078.
Sequence GATTTTTAGC has a switch fluorescence ratio of 1 ± 0.065.
CAAGGGAATG gave a switch fluorescence ratio of 1 ± 0.022.
With CTCTAAGTCG the switch fluorescence ratio was 0.976 ± 0.011.
Work on ACGGAAACGC yielded a switch fluorescence ratio of 1.1 ± 0.02.
With CTCGGCGTCC the switch fluorescence ratio was 1.142 ± 0.0086.
TAGCTAGGTG showed a switch fluorescence ratio of 1.62 ± 0.05.
AAGATCCTTT was tested, and the switch fluorescence ratio was 0.986 ± 0.025.
Sequence AATTGAGTGG has a switch fluorescence ratio of 1.009 ± 0.0077.
In the case of ACGTACTATT, the switch fluorescence ratio is reported as 1.45 ± 0.23.
Sequence ATGGATATGG has a switch fluorescence ratio of 1 ± 0.026.
Work on GATATAGTAT yielded a switch fluorescence ratio of 0.993 ± 0.039.
With CTGTAGAGAG the switch fluorescence ratio was 1.01 ± 0.063.
For GGTAGTAGAT, the switch fluorescence ratio was 1.01 ± 0.0072.
TAGGGATTTG showed a switch fluorescence ratio of 1.01 ± 0.014.
With ATCGATGAGG the switch fluorescence ratio was 0.991 ± 0.058.
Sequence ATCAAGAGGG has a switch fluorescence ratio of 1.01 ± 0.014.
CGATGGCCCT was tested, and the switch fluorescence ratio was 1.03 ± 0.011.
GCGTGAAGAA was tested, and the switch fluorescence ratio was 1.03 ± 0.029.
With ATTGCGTTTG the switch fluorescence ratio was 1.01 ± 0.026.
In the case of GTGGGTTCCT, the switch fluorescence ratio is reported as 1.013 ± 0.0021.
In the case of ATGTTCGAGA, the switch fluorescence ratio is reported as 0.9855 ± 0.0066.
In the case of ATGCGTGAGG, the switch fluorescence ratio is reported as 1.011 ± 0.0037.
In the case of CTCATAGCGG, the switch fluorescence ratio is reported as 1.02 ± 0.029.
Work on GGGTGTGGTA yielded a switch fluorescence ratio of 0.9967 ± 0.0096.
Sequence TTTGGTTAC has a switch fluorescence ratio of 1.05 ± 0.023.
In the case of GGGTTAGGTC, the switch fluorescence ratio is reported as 1.02 ± 0.013.
In the case of CGGGGGTCTT, the switch fluorescence ratio is reported as 1 ± 0.021.
CGTGAGAAGT showed a switch fluorescence ratio of 0.9923 ± 0.0041.
GGTTGAGGAC was tested, and the switch fluorescence ratio was 1.01 ± 0.057.
TCGAGGAATT gave a switch fluorescence ratio of 1.02 ± 0.02.
With TGATCATCTA the switch fluorescence ratio was 0.993 ± 0.024.
TGCTGGGGTT showed a switch fluorescence ratio of 0.9764 ± 0.0047.
TTTTCGCTGG gave a switch fluorescence ratio of 1.01 ± 0.049.
ACATTTATGG was tested, and the switch fluorescence ratio was 0.999 ± 0.021.
For ATATCAGGGC, the switch fluorescence ratio was 0.961 ± 0.034.
Work on AAGGAATGGT yielded a switch fluorescence ratio of 1.05 ± 0.041.
TACTCTCGGT gave a switch fluorescence ratio of 1.035 ± 0.0057.
CATACGGGTA showed a switch fluorescence ratio of 1.042 ± 0.00018.
In the case of TTTTGTAATT, the switch fluorescence ratio is reported as 1.1 ± 0.2.
Sequence ATGAGGAGGA has a switch fluorescence ratio of 1.04 ± 0.013.
With AAAAAGGGGG the switch fluorescence ratio was 1.02 ± 0.045.
ATTCCTAGA gave a switch fluorescence ratio of 0.992 ± 0.021.
With AGGGTATCGC the switch fluorescence ratio was 0.9932 ± 0.0065.
In the case of TTGATCAGAG, the switch fluorescence ratio is reported as 1.01 ± 0.024.
In the case of AAGTCGGATA, the switch fluorescence ratio is reported as 1 ± 0.028.
Work on GTGCTATTAT yielded a switch fluorescence ratio of 0.993 ± 0.024.
ATCGGATATA was tested, and the switch fluorescence ratio was 0.989 ± 0.015.
For CTGGCGGAAA, the switch fluorescence ratio was 1.05 ± 0.093.
Work on ACAAGATCGG yielded a switch fluorescence ratio of 1.0072 ± 0.00016.
Sequence TCCGGAGGGT has a switch fluorescence ratio of 1.05 ± 0.06.
Sequence GGTGCAGGTA has a switch fluorescence ratio of 0.984 ± 0.025.
Sequence GACCGGGTTC has a switch fluorescence ratio of 1.02 ± 0.033.
Sequence TGGCACATAT has a switch fluorescence ratio of 1.04 ± 0.054.
Sequence GGGGGTTTAA has a switch fluorescence ratio of 1.02 ± 0.014.
With GATGGGGTGT the switch fluorescence ratio was 1.03 ± 0.027.
In the case of ATTGAGAAGT, the switch fluorescence ratio is reported as 0.996 ± 0.031.
For AATTTTTAGT, the switch fluorescence ratio was 0.981 ± 0.024.
GTATGCGAAG gave a switch fluorescence ratio of 1.03 ± 0.053.
Work on CTGGTTTTCA yielded a switch fluorescence ratio of 0.988 ± 0.024.
For ATTTAAGAGA, the switch fluorescence ratio was 1.01 ± 0.051.
GTTGGTCGTG gave a switch fluorescence ratio of 1 ± 0.038.
In the case of GGGGCGAACG, the switch fluorescence ratio is reported as 0.977 ± 0.04.
Sequence AGAACGGGGC has a switch fluorescence ratio of 1.02 ± 0.023.
Work on TTTTTTAACA yielded a switch fluorescence ratio of 1.01 ± 0.027.
Sequence TGGTTTATTT has a switch fluorescence ratio of 0.976 ± 0.01.
TTCGGGTATT gave a switch fluorescence ratio of 1.1 ± 0.2.
GAAGTTGGTG was tested, and the switch fluorescence ratio was 0.987 ± 0.026.
Sequence GGTATTCGAA has a switch fluorescence ratio of 1.054 ± 0.0022.
GGTGCGTTGG showed a switch fluorescence ratio of 1.03 ± 0.042.
For AAATCGTAGT, the switch fluorescence ratio was 0.9885 ± 0.0069.
Sequence TAAGAAGATG has a switch fluorescence ratio of 0.9808 ± 0.0014.
GGGGTTATGT showed a switch fluorescence ratio of 0.979 ± 0.021.
In the case of TTTCGTTTGG, the switch fluorescence ratio is reported as 0.981 ± 0.042.
GATTATAGGT was tested, and the switch fluorescence ratio was 1.01 ± 0.015.
In the case of CCATGGAGTA, the switch fluorescence ratio is reported as 1 ± 0.019.
In the case of ATGCACTGGT, the switch fluorescence ratio is reported as 1.01 ± 0.026.
In the case of AATTTTGGTG, the switch fluorescence ratio is reported as 0.998 ± 0.047.
For TTTCATGGTG, the switch fluorescence ratio was 1.0484 ± 0.00021.
TTTGGATAGA was tested, and the switch fluorescence ratio was 0.998 ± 0.025.
GTTTATGTGA showed a switch fluorescence ratio of 1.03 ± 0.057.
In the case of TCAACGAATG, the switch fluorescence ratio is reported as 0.994 ± 0.08.
